In US6579848B1, “Depigmenting activity of agouti signal protein and peptides thereof” (The United States of America as represented by the …, priority 1995, dated 2003):

B1: agouti protein: Recombinant murine agouti signal protein purified from a baculovirus expression system (protein)
chain: MDVTRLLLATLVSFLCFFTVHSHLALEETLGDDRSLRSDSSMNSLDFSSVSIVALNKKSKKISRKEAEKRKRSSKKKASMKKVARPPPPSPCVATRDSCKPPAPACCDPCASCQCRFFGSACTCRVLNPNC

Tests used:
TRP2 = assay: DOPAchrome tautomerase enzyme assay on extracts of treated melan-a cells; type: cell-based, murine; conditions: extracts of melan-a cells cultured 5 days; 10 nM
Procedure: Assays for melanogenic catalytic activities as described below were carried out at pH 6.8, 37° C. for 60 minutes. (1) Tyrosine hydroxylase activity was measured using the [^3H]tyrosine assay (Hearing and Ekel, 1976; Hearing, 1987). This method specifically measures the tritiated water produced during the hydroxylation of tyrosine to DOPA. (2) DOPA oxidase activity was measured using incorporation of [3-^14C]DOPA into acid-insoluble melanin as detailed previously (Aroca et al., 1993). (3) DOPAchrome tautomerase activity was measured by HPLC as the disappearance of DOPAchrome substrate and the production of DHICA rather than DHI; data are converted to pmol products by comparison with known standards. The HPLC assay was detailed previously (Palumbo et al., 1987; Tsukamoto et al., 1992). (4) DHI oxidase and DHICA oxidase activities were measured by HPLC as the disappearance of these substrates from reaction mixtures compared to controls for spontaneous auto-oxidation; data are converted to pmol by comparison with known standard (Aroca et al., 1993). (5) Melanin production was measured using incorporation of [^14C]tyrosine into acid-insoluble melanin, also as detailed previously (Hearing and Ekel, 1976; Hearing, 1987); pmol melanin produced are calculated from the radioactive product. […]

TRP1 = assay: Northern blotting of TRP1 RNA in melan-a cells; type: cell-based, murine; conditions: for RNA level of TRP1: 10 nM, 5 days
Procedure: These techniques were performed as described previously (Aroca et al., 1993). Briefly, 2.0 μg of mRNA, isolated using a total RNA isolation kit and mRNA purification kit (Promega, Madison, Wis.), were electrophoresed and then blotted to Sure-Blot nylon membranes (Oncor, Gaithersburg, Md.), hybridized with ^32P-labeled probes, dehybridized and rehybridized with other probes again as necessary. TYRS-J, the probe specific for tyrosinase, was kindly provided by Drs. H. Yamamoto and T. Takeuchi, Sendai, Japan and is described in Yamamoto et al Japan J. Genetics Vol 62:271-274, 1987. pMT4, specific for TRP1, was provided by Dr. S. Shibahara, Sendai, Japan and is described in Shibahara, S. et al Nucleic Acid Res. Vol 14:2413-2427, 1986. TRP2a, specific for TRP2 was provided by Dr. I. Jackson, Edinburgh, Scotland and is described in Jackson, I et al. EMBO Vol 11:527-535, 1992. gp100, specific for silver, was provided by Dr. Y. Kawakami, Bethesda, Md. and is described in Kawakami et al PNAS, Vol. 91, 6458-6462, 1994.
Recombinant agouti protein was purified from baculovirus system by Dr. Michael Ollmann in Dr. Gregory Barsh's laboratory by methods known in the art. 2×10^6 cells were seeded per 15 cm diameter dish. The medium was changed everyday, and fresh agouti protein and/or αMSH added everyday usually at 10 nM. To examine transcriptional regulation, total RNA was isolated and Northern blotting performed by methods described in Example 1. The A26 probe to the MSH-R was provided by Dr. R. Cone and is described in Mountjoy et al. Science 257:1248-1251, 1992. At the translational level, metabolic labeling was used in conjunction with immunoprecipitation as described in Example 1. Western blotting and enzyme assay was used to examine function.
The effects of agouti protein on expression of TRP1, TRP2, and the MSH receptor were examined.
Total RNA was extracted from cells using an RNeasy total RNA isolation kit (QIAGEN, Catsworth, Calif.), following the manufacturer's instructions. […]

Molecule | DOPA chome tautomerase (TRP2) [pmol/μg protein/hr] | RNA level of TRP1 (TRP1) | level of TRP1 RNA (TRP1; 24 hours, different concentrations)
α-melanocyte stimulating hormone [MSH, reference compound] | 555.0 | no significant increase | –
B1 | 0.0 | nearly a fivefold decrease | reduced, but not to the same extent as tyrosinase RNA
